# Values quoted from earlier work as cited in publication PMC4485156.
# Molecular target: haptoglobin-hemoglobin complex (Homo sapiens) (UniProt P00738)
# Sequence of UniProt P00738 (P00738 19-406, chain 1 of 3): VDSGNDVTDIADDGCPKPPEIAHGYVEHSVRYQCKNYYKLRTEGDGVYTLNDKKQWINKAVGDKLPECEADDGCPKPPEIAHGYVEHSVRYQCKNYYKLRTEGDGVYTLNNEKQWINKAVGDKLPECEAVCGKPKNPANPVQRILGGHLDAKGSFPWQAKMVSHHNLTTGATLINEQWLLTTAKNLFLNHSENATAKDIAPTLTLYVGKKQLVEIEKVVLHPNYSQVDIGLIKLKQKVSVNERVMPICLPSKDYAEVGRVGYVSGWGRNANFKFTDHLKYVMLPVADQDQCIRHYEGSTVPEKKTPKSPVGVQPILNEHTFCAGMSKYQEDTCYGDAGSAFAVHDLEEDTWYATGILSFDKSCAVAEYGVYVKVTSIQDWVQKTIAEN
# Sequence of UniProt P00738 (P69905 2-142, chain 2 of 3, further chain): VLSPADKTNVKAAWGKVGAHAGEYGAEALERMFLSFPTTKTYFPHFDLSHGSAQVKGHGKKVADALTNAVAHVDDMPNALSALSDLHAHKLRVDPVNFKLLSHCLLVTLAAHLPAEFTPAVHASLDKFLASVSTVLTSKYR
# Sequence of UniProt P00738 (P68871 2-147, chain 3 of 3, further chain): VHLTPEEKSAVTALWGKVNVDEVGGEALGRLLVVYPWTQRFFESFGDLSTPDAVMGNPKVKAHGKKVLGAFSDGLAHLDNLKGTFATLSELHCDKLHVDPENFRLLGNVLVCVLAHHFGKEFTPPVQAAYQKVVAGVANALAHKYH
substance,measurement,value
CD163 (from UniProt Q86VB7),Kd,19 nM
